T1: synthetic fluorogenic EPF1 peptide
T1 chain: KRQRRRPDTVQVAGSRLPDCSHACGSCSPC

T2: synthetic EPF2 peptide (synEPF2), 30 AA partial EPF2 peptide spanning the predicted cleavage site, Dabcyl-SKNGGVEMEMYPTGSSLPDCSYACGACSPC-Glu(EDANS)
T2 chain: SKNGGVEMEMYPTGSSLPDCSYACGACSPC


Key:
[1] = target: T1, synthetic fluorogenic EPF1 peptide
[2] = target: T2, synthetic EPF2 peptide (synEPF2), 30 AA …

Protein | synthetic peptide and protease fluorogenic cleavage assay [1] | MALDI-TOF-MS hits of cleavage fragment SKNGGVEMEMYPTGS (SEQ ID NO:131) [2] | MALDI-TOF-MS hits of cleavage fragment SKNGGVEMEMYPTGSSL (SEQ ID NO:130) [2] | MALDI-TOF-MS hits of cleavage fragment SKNGGVEMEMYPTGSSLPD (SEQ ID NO:129) [2] | MALDI-TOF-MS hits of the uncleaved 30 aa peptide [2] | synthetic peptide and protease fluorogenic cleavage assay [2]
SDD1 protease, STREPII tagged, synthesized in the SP6-TNT wheat germ system (protein) MEPKPFFLCIIFLLFCSSSSEILQKQTYIVQLHPNSETAKTFASKFDWHLSFLQEAVLGVEEEEEEPSSRLLYSYGSAIEGFAAQLTESEAEILRYSPEVVAVRPDHVLQVQTTYSYKFLGLDGFGNSGVWSKSRFGQGTIIGVLDTGVWPESPSFDDTGMPSIPRKWKGICQEGESFSSSSCNRKLIGARFFIRGHRVANSPEESPNMPREYISARDSTGHGTHTASTVGGSSVSMANVLGNGAGVARGMAPGAHIAVYKVCWFNGCYSSDILAAIDVAIQDKVDVLSLSLGGFPIPLYDDTIAIGTFRAMERGISVICAAGNNGPIESSVANTAPWVSTIGAGTLDRRFPAVVRLANGKLLYGESLYPGKGIKNAGREVEVIYVTGGDKGSEFCLRGSLPREEIRGKMVICDRGVNGRSEKGEAVKEAGGVAMILANTEINQEEDSIDVHLLPATLIGYTESVLLKAYVNATVKPKARIIFGGTVIGRSRAPEVAQFSARGPSLANPSILKPDMIAPGVNIIAAWPQNLGPTGLPYDSRRVNFTVMSGTSMSCPHVSGITALIRSAYPNWSPAAIKSALMTTADLYDRQGKAIKDGNKPAGVFAIGAGHVNPQKAINPGLVYNIQPVDYITYLCTLGFTRSDILAITHKNVSCNGILRKNPGFSLNYPSIAVIFKRGKTTEMITRRVTNVGSPNSIYSVNVKAPEGIKVIVNPKRLVFKHVDQTLSYRVWFVLKKKNRGGKVASFAQGQLTWVNSHNLMQRVRSPISVTLKTN | EPF1 cleavage by both SDD1 and CRSP shows low affinity | – | – | – | – | –
CO2-regulated secreted subtilisin-like serine protease (CRSP), STREP II-tagged, synthesized in vitro in the wheat germ system (protein) MKGITFFTPFLSFLYLLCILFMTETEAGSRNGDGVYIVYMGSASSAANANRAQILINTMFKRRANDLLHTYKHGFSGFAARLTAEEAKVIAKKPGVVSVFPDPHFQLHTTHSWDFLKYQTSVKVDSGPPSSASDGSYDSIVGILDTGIWPESESFNDKDMGPIPSRWKGTCMEAKDFKSSNCNRKIIGARYYKNPDDDSEYYTTRDVIGHGSHVSSTIAGSAVENASYYGVASGTAKGGSQNARIAMYKVCNPGGCTGSSILAAFDDAIADGVDVLSLSLGAPAYARIDLNTDPIAIGAFHAVEQGILVICSAGNDGPDGGTVTNTAPWIMTVAANTIDRDFESDVVLGGNKVIKGEGIHFSNVSKSPVYPLIHGKSAKSADASEGSARACDSDSLDQEKVKGKIVLCENVGGSYYASSARDEVKSKGGTGCVFVDDRTRAVASAYGSFPTTVIDSKEAAEIFSYLNSTKDPVATILPTATVEKFTPAPAVAYFSSRGPSSLTRSILKPDITAPGVSILAAWTGNDSSISLEGKPASQYNVISGTSMAAPHVSAVASLIKSQHPTWGPSAIRSAIMTTATQTNNDKGLITTETGATATPYDSGAGELSSTASMQPGLVYETTETDYLNFLCYYGYNVTTIKAMSKAFPENFTCPADSNLDLISTINYPSIGISGFKGNGSKTVTRTVTNVGEDGEAVYTVSVETPPGFNIQVTPEKLQFTKDGEKLTYQVIVSATASLKQDVFGALTWSNAKYKVRSPIVISSESSRTN | EPF1 cleavage by both SDD1 and CRSP shows low affinity | (5 hits) | (3 hits) | (14 hits) | The 30 aa, full length, uncleaved peptide was also seen (14 hits) | EPF2 cleavage sample traces indicate that EPF2 cleavage by CRSP could be specific (compared with SDD1)
